Assay [1] addresses T1, human IL-2Rγ endogenously expressed on NK-92 and Jurkat cells (human, UniProt P31785 23-369).
T1 construct: whole, on cells; on cells it stands with the other receptor subunits of the cell line; also called IL-2Rg; CD132
T1 sequence (looked up): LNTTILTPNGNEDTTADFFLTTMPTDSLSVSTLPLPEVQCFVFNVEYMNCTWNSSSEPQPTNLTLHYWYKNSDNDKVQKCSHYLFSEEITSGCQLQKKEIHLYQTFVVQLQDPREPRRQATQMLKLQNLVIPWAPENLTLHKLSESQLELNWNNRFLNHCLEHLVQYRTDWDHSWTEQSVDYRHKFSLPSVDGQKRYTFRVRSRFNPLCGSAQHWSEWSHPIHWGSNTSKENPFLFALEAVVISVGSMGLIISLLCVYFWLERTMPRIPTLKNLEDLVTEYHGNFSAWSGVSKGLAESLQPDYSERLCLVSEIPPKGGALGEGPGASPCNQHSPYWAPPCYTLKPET
The assay is described as follows: flow cytometry, 10 ug/ml antibody, NK-92 cells (endogenous human IL-2Rg). As to the method:
For flow cytometry analyses, the cells were pre-incubated with mouse IgG at 100 μg/ml for 15 minutes at room temperature (RT) to block the binding of the antibodies to Fc receptors. […] Cells were washed, fixed using BD CytoFix™ (BD biosciences, #554655) and analyzed on an IQue® (Intellicyt®) Flow Cytometer or Accuri Flow cytometer (BD). […] The results were analyzed using ForeCyt® (IntelliCyt®) software to determine the geometric means of fluorescence (MFI) for viable cells. Binding ratios were calculated by normalizing the MFI of the test sample by the MFI of the unstained sample.

In assay [2] the target is T2, Human IL2Rγ extracellular domain expressed with a C-terminal myc-myc-hexahistidine tag (human).
T2 construct: also called hIL-2Rg-MMH; hIL-2RG-MMH
T2 chain: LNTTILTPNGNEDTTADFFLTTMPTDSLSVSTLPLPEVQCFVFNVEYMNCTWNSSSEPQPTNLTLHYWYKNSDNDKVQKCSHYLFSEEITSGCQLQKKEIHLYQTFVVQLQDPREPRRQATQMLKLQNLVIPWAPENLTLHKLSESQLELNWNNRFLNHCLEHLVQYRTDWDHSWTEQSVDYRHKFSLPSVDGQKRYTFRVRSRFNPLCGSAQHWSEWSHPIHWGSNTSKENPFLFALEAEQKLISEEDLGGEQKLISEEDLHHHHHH
The assay is described as follows: SPR Biacore 4000, mAb captured by anti-hFc, HBS-ET, 37C. The gist of the method: (§1)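 Surface plasmon resonance with anti-hFc-captured antibodies in pH 7.4 HEPES-buffered saline containing EDTA and Tween-20; kinetic constants from a 1:1 model.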

For assay [3], the target named is T3, Macaca fascicularis IL2Rγ extracellular domain expressed with a C-terminal myc-myc-hexahistidine tag (Macaca fascicularis).
T3 construct: also called mfIL-2Rg-MMH; mfIL-2RG-MMH
T3 chain: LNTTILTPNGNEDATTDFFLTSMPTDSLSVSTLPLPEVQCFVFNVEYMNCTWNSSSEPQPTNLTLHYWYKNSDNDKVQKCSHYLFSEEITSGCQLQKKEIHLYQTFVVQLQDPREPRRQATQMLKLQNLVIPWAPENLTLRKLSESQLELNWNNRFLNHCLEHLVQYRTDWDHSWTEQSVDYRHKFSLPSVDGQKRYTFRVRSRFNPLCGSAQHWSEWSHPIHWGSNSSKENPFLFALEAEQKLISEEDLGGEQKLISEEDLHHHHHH
The assay is described as follows: SPR Biacore 4000, mAb captured by anti-hFc, 37C, dissociation in PBS-T pH 6.0. In a few lines: (§2)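 Biacore 4000 SPR; anti-IL2Rγ mAbs (human IgG4 Fc) captured on anti-human Fc CM5 surface, IL2Rγ-MMH flowed over. Dissociation followed 6 min in PBS-T pH 7.4 or pH 6.0 at 25° C or 37° C; kd from 1:1 model fit of sensorgrams.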

Assay [4] addresses T2, Human IL2Rγ extracellular domain …. The assay is described as follows: SPR Biacore 4000, mAb captured by anti-hFc, HBS-ET, 25C. In a few lines: as §1
For assay [5], the target named is T3, Macaca fascicularis IL2Rγ extracellular …. The description is as above. In a few lines:
as §1

For assay [6] the target is unchanged. The assay is described as follows: SPR Biacore 4000, mAb captured by anti-hFc, 37C, dissociation in PBS-T pH 7.4. The gist of the method:
as §2

Assay [7] concerns the target T4, D1 domain of human IL-2Rγ extracellular domain expressed with a C-terminal myc-myc-hexahistidine tag (human).
T4 construct: also called human IL2Rγ domain 1
T4 chain: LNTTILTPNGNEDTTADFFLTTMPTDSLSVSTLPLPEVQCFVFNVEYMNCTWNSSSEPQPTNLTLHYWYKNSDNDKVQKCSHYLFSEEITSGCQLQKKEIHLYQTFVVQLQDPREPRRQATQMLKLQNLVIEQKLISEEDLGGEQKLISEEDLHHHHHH
The assay is described as follows: SPR, mAb captured on anti-hFc, 37 C. As to the method:
(§3) Equilibrium dissociation constants (KD values) for IL-2Rγ binding to purified anti-IL2Rγ monoclonal antibodies were determined using a Biacore 4000 instrument equipped with a real-time surface plasmon resonance biosensor. All binding studies were performed in 10 mM HEPES, 150 mM NaCl, 3 mM EDTA, and 0.05% v/v Surfactant Tween-20, pH 7.4 (HBS-ET) running buffer at 25° C. and 37° C. The Biacore sensor surface was first derivatized by amine coupling with a monoclonal mouse anti-human Fc antibody (GE, # BR-1008-39) to capture anti-IL2Rγ monoclonal antibodies.
(§4) The dissociation of monoclonal antibody bound IL2Rγ reagents were monitored for 8-10 minutes in HBS-ET running buffer. Kinetic association (kₐ) and dissociation (kd) rate constants were determined by fitting the real-time sensorgrams to a 1:1 binding model using Scrubber 2.0c curve fitting software. Binding dissociation equilibrium constants (KD) and dissociative half-lives (t_{1/2}) were calculated from the kinetic rate constants as: […]

The target in assay [8] is T4, D1 domain of human IL-2Rγ extracellular …. The assay is described as follows: SPR, mAb captured on anti-hFc, 25 C. As to the method:
as §3, §4

Assay [9] has as its target T5, human IL2Rγ (endogenously expressed on cells) (human, UniProt P31785 23-369).
T5 sequence (looked up): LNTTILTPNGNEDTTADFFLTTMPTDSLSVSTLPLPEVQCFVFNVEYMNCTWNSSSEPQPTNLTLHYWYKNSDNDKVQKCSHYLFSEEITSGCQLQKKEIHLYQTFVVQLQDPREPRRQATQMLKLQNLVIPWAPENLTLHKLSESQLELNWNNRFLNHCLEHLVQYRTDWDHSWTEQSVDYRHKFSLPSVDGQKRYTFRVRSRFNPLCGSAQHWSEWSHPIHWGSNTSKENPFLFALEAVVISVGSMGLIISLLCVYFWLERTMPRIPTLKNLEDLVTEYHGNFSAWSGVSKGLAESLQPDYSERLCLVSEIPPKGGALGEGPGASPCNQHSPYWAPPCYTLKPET
The assay is described as follows: cell-based or functional assay.

Some results are limits rather than exact numbers.

B1: H4H13541P (antibody, human IgG4 S228P, kappa, V domains shown)
VH: EVQLVESGGGVVRPGGSLRLSCAASGFIFDDYDMSWVRQPPGRGLEWVSGIDWFGGTRGYADSMKGRFTISRDNAKNSLYLQMNSLRVEDTAFYYCARGGAIVGAVTPFDYWGQGTLVTVSS
VL: DIQMTQSPSSLSASVGNRVTLSCRASQSINTYLSWYQQRPGKAPKLLIYAASSLQSGVPSRFSGSGAGTDFTLTISSLQPEDFATYYCQQSYSAPLTFGGGTKVEIKR
notes: fully human anti-IL2Rg antibody, human IgG4
On to B1, for which, in assay [1], the “Binding Ratio (Sample over unstained MFIs)” value (shortened to “Binding Ratio”) is 37 and the “Raw MFI” value was determined as 7050 MFI.

B2: H4H12900P (antibody, human IgG4 S228P, kappa, V domains shown)
VH: QVQLVESGGGLVKPGGSLRLSCEASGFTFNDFYMTWIRQAPGKGLEWIAYISKSGDKMRYADSVKGRFSTSRDNAKNSLSLQMNSLRAEDTAVYYCARFYGDIWGQGTLVTVSS
VL: DIQLTQSPSFLSASVGDRVTITCWASQDISSFLVWYQQKPGKAPNLLIYAASALQSGVPSRFSGSGSGTEFTLTISSLQPEDFASYYCEQLNNYPWTFGQGTKVEIKR
notes: anti-IL2Rγ monoclonal antibody expressed with human IgG4 Fc
For B2, in assay [2], the “100 nM Ag Bound” value turned out to be 43 RU, binding was characterised by a dissociation constant (Kd) of 3.66 nM, the koff was found to be 0.00184 s⁻¹ and the kon worked out at 503000 M⁻¹ s⁻¹. Also, in assay [2], the t1/2 is 6 min. In assay [3], the “100 nM Ag Bound (RU)” value worked out at 130 RU, the koff was 0.00277 s⁻¹ and the t1/2 stood at 4 min. In addition, in [4], the “100 nM Ag Bound” value is 79 RU, the dissociation constant (Kd) stood at 1.29 nM, the koff came out at 0.000379 s⁻¹ and the kon stood at 293000 M⁻¹ s⁻¹. For the same molecule, in assay [4], the t1/2 turned out to be 30 min. In [5], the “100 nM Ag Bound” value is 71 RU, binding was put at a Kd of 1.44 nM, the koff turned out to be 0.000335 s⁻¹ and the kon is 232000 M⁻¹ s⁻¹. Moreover, the t1/2 in [5] came to 34 min. In [6], the “100 nM Ag Bound (RU)” value was 166 RU, the koff came to 0.000623 s⁻¹ and the t1/2 worked out at 19 min.

B3: H4H12857P (antibody, human IgG4 S228P, kappa, V domains shown)
VH: EVQLVESGGGVVRPGGSLRLSCAASGFTFDDFDMSWVRQGPGKGLEWVSGINWHGSSTGYADSVKGRFTISRDNAKNSLYLQMSSLRAEDTALYHCVRGGTIVGATTPLDYWGQGTLVTVSS
VL: DIQMTQSPSSLSASVGDRVTMTCRASRTISSYLSWYQQKSGKVPNLLIFGASSLQSGVPSRFSASGSGTDFTLIISSLQPEDFATYYCQQSYSSPLTFGGGTKVEIKR
notes: human IgG4; also called REGN9432
On to B3, for which, in [7], the “100 nM Ag Bound” value came to 1 RU and the binding result is “no binding (tested: 100 nM)”. For the same molecule, in assay [8], the “100 nM Ag Bound” value is 0 RU. For the same molecule, in [9], the “IC50; IL-2 30 pM; NK92/hIL7R/STAT3-luc” value is above 1e-07 M, the “IC50; IL-4 250 pM; Ramos.2G6.4C10/STAT3-luc” value is 3.8e-08 M, the “IC50; IL-7 50 pM; NK92/hIL7R/STAT3-luc” value is 1.6e-08 M and the “IC50; IL-9 20 pM; NK92/hIL7R/STAT3-luc” value is above 1e-07 M. In assay [9], the “IC50; IL-15 60 pM; NK92/hIL7R/STAT3-luc” value was above 1e-07 M, the “Max Inhibition (%); IL-2 30 pM; NK92/hIL7R/STAT3-luc” value is 44%, the “Max Inhibition (%); IL-4 250 pM; Ramos.2G6.4C10/STAT3-luc” value worked out at 96% and the “Max Inhibition (%); IL-7 50 pM; NK92/hIL7R/STAT3-luc” value worked out at 94%. In addition, in assay [9], the “Max Inhibition (%); IL-9 20 pM; NK92/hIL7R/STAT3-luc” value was found to be 83% and the “Max Inhibition (%); IL-15 60 pM; NK92/hIL7R/STAT3-luc” value was 78%.

B4: H4H13545P2 (antibody, human IgG4 S228P, kappa, V domains shown)
VH: QVQLQQSGPGLVKPSQTLSLTCDISGDSVSSNIATWNWIRQSPSRGLEWLGRTYYRSKWYKDYAVSVKSRITINPDTSKNQFSLQVNSVTPEDTAVYYCARMTGPRYYFEYWGQGTLVTVSS
VL: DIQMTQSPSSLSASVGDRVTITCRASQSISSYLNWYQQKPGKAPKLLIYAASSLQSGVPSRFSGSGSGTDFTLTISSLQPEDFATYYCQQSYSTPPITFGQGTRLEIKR
notes: as for B1
B4: in [1], the “Binding Ratio” value was 3 and the “Raw MFI” value was determined as 592 MFI.

B5: H4H12908P (antibody, human IgG4 S228P, kappa, V domains shown)
VH: EVQLVESGGRLVQPGGSLRLSCEASGFTFSNYGMTWVRQAPGKGLEWVSVISGSDNRKYYAESVKGRFTISRDNSKNTLYLQMNSLRAEDTAVYYCAKLGYSRSSKDFYYGMDVWGQGTTVTVSS
VL: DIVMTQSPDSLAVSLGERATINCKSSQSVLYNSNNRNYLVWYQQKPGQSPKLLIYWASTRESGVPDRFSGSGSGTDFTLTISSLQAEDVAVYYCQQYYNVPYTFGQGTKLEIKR
notes: as for B2
On to B5, for which, in assay [2], the “100 nM Ag Bound” value came out at 16 RU, the Kd came out at 29.2 nM, the koff is 0.00141 s⁻¹ and the kon turned out to be 48300 M⁻¹ s⁻¹. In [2], this molecule registered a t1/2 of 8 min. Further, in assay [3], the “100 nM Ag Bound (RU)” value worked out at 52 RU, the dissociation rate constant (koff) amounted to 0.00131 s⁻¹ and the t1/2 was found to be 9 min. In assay [4], the “100 nM Ag Bound” value came out at 19 RU; the affinity, expressed as Kd, was 8.61 nM; the off-rate constant (koff) was 0.000285 s⁻¹; the kon amounted to 33100 M⁻¹ s⁻¹. In addition, the t1/2 in assay [4] came to 41 min. Further, in [5], the “100 nM Ag Bound” value came out at 14 RU, the Kd stood at 7.37 nM, the koff is 0.000237 s⁻¹ and the kon amounted to 32200 M⁻¹ s⁻¹. In assay [5], this molecule registered a t1/2 of 49 min. In assay [6], the “100 nM Ag Bound (RU)” value was 55 RU, the koff came to 0.000514 s⁻¹ and the t1/2 turned out to be 22 min.

B6: H4H13538P (antibody, human IgG4 S228P, kappa, V domains shown)
VH: EVQLVESGGGLVQPGGSLGLSCAASGFTFSNYAMSWVRQAPGKGLEWVSAVSGGGGGTYYADSVKGRFTISRDNSKNTVLLQMNSLRAEDTAVYYCARGRTGGLDYWGPGTLVTVSS
VL: DVVMTQSPLSLPVIFGQPASISCRSSQSLVDSDGNTYLNWLQQRPGQSPRRLIYEVSNRDSGVPDRFSGSGSGTDFTLTISRVEAEDVGIYYCMQGTRWPPTFGGGTKVEIKR
notes: as for B1
As for B6, in [1], the “Binding Ratio” value was determined as 1 and the “Raw MFI” value was 235 MFI.

B7: H4H13544P2 (antibody, human IgG4 S228P, kappa, V domains shown)
VH: QLQLQESGPGLVKPSETLSLTCTVSGGSISIKNYYWGWIRQPPGKGLEWIGSIYYSGTTYYNPSLKSRVTISVDTSKNQFSLKLSSVTAADTAVYHCARHGYSYGHGWFDPWGQGTLVTVSS
VL: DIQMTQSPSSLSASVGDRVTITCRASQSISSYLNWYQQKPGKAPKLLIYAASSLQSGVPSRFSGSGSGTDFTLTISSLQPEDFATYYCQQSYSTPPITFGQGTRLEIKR
notes: as for B1
Take B7: in assay [1], the “Binding Ratio” value amounted to 24 and the “Raw MFI” value is 4650 MFI.
